Source: patent US7754216B2, “Method of treating multiple sclerosis with anti-K6 antibody” (Mayo Foundation for Medical Education and Research, priority 2002, dated 2010)

Key:
[1] = target: rat myelin basic protein (MBP) (UniProt P02688)
[2] = target: T1, recombinant rat myelin oligodendrocyte glycoprotein (αMOG), extracellular domain, amino acids 1-125 (UniProt Q63345)
T1 sequence: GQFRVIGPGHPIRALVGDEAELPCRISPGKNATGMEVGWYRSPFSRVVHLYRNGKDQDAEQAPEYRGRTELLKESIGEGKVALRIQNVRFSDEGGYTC

K6 mRNA in spinal cord = K6 mRNA in spinal cord after kainic acid excitotoxic injury; format: in vivo, rat; details: three days after intraperitoneal KA
Description: Levels of K6 mRNA in adult rat spinal cord were increased in both white and gray matter following kainic acid (KA)-induced excitotoxic injury. Dark-field photomicrographs (FIG. 1) show the autoradiographic localization of K6 mRNA in a transverse section through the spinal cord of a control rat, and in parallel sections of paired experimental rats at 3 and 7 days after intraperitoneal injection of KA. By three days after KA treatment, K6 mRNA was 2-fold higher in the white matter and 1.5-fold higher in the dorsal horn (DH) and ventral horn (VH) of the spinal cord gray matter, compared to controls (P<0.05).

Sequence of UniProt P02688 (P02688 2-195): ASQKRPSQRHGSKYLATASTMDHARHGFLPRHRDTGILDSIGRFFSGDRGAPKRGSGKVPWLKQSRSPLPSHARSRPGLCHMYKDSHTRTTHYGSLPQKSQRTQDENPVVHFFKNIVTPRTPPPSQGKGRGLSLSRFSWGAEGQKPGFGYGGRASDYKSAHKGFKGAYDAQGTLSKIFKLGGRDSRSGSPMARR

recombinant rat K6 (r-K6)
degradation on 16.5% Tricine SDS-PAGE [1]: MBP was partially degraded by 10 minutes after addition of K6, and showed much greater levels of degradation at 30 minutes and 60 minutes | degradation on 16.5% Tricine SDS-PAGE [2]: αMOG was partially degraded by 1 hour after addition of K6, and was completely degraded by 4 hours

K6 (recombinant; species not stated where used)
degradation on 7.5% SDS-PAGE (collagen type I): Collagen type I was degraded within 5 minutes of K6 addition | degradation on 7.5% SDS-PAGE (laminin): Laminin was partially degraded by one hour after K6 addition, and was completely degraded by 16 hours | degradation on 7.5% SDS-PAGE (fibronectin): Fibronectin was partially degraded within 1 hour of K6 addition and was completely degraded by 24 hours

C=C(C)[C@H]1CN[C@H](C(=O)O)[C@H]1CC(=O)O [KA, kainic acid]
K6 mRNA in dorsal horn (DH) and ventral horn (VH) gray matter compared to controls (K6 mRNA in spinal cord): 1.5 fold | K6 mRNA in spinal cord white matter compared to controls (K6 mRNA in spinal cord): 2 fold
